Source: patent US20250186620A1 (DUKE UNIVERSITY, published 2025)
Substitutions are numbered along the chain they refer to. Names may count otherwise.

T1: human connexin36 (Cx36) (human, UniProt Q9UKL4 1-321)
T1 construct: whole, on cells; Hemichannel expressed in HEK 293FT cells for FETCH; also called GJD2; not shown: C-terminal fluorescent protein fusion (mEmerald or RFP670 in FETCH)
T1 sequence (looked up): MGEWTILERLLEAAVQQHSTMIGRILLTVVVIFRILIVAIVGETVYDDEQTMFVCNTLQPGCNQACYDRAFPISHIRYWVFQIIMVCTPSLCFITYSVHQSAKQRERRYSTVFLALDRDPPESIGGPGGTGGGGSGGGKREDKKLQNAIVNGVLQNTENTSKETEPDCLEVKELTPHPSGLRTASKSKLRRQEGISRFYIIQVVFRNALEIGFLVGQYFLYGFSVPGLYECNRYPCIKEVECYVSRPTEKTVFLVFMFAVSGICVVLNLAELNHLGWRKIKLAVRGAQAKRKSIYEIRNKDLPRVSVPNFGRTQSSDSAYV

B1: Cx34.7E214K/E223K/E225K (Morone americana Cx34.7 triple mutant) (protein, not shown: large carriers)
chain: MGEWTILERLLEAAVQQHSTMIGRILLTVVVIFRILIVAIVGETVYEDEQAMFICNTLQPGCNQACYDKAFPISHIRYWVFQIILVCTPSLCFITYSVHQSAKQKDRRYSFLYPIMERDYGGRDGARKLRNINGILVQHGGDGGGGKEEPDCLEVKEIPNAPRGLTHGKSSKVRRQEGISRFYIIQVVFRNALEIGFLAGQYFLYGFSVPGIFKCDRYPCLKKVKCYVSRPTEKTVFLVFMFAVSGICVVLNLAELNHLGWRKIKAAIRGVQARRKSICEIRKKDMAHLSQPPNLGRTQSSESAYV
B2: Cx34.7 mutant E225K (Morone americana) (other)
chain: B1 chain with K214E, K223E
notes: Extracellular loop mutant of the screening library; also called Cx34.7 E225K; not shown: C-terminal fluorescent protein fusion (mEmerald or RFP670 in FETCH)
B3: Cx34.7 mutant Y78V (Morone americana) (other)
chain: B1 chain with Y78V, K214E, K223E, K225E
notes: Extracellular loop mutant of the screening library; also called Cx34.7 Y78V; not shown: C-terminal fluorescent protein fusion (mEmerald or RFP670 in FETCH)
B4: Cx34.7 mutant E225R (Morone americana) (other)
chain: B1 chain with K214E, K223E, K225R
notes: Extracellular loop mutant of the screening library; also called Cx34.7 E225R; not shown: C-terminal fluorescent protein fusion (mEmerald or RFP670 in FETCH)
B5: Cx34.7 mutant Y78T (Morone americana) (other)
chain: B1 chain with Y78T, K214E, K223E, K225E
notes: Extracellular loop mutant of the screening library; also called Cx34.7 Y78T; not shown: C-terminal fluorescent protein fusion (mEmerald or RFP670 in FETCH)
B6: Cx34.7 mutant Y78S (Morone americana) (other)
chain: B1 chain with Y78S, K214E, K223E, K225E
notes: Extracellular loop mutant of the screening library; also called Cx34.7 Y78S; not shown: C-terminal fluorescent protein fusion (mEmerald or RFP670 in FETCH)
B7: Cx34.7 mutant L238Y (Morone americana) (other)
chain: B1 chain with K214E, K223E, K225E, L238Y
notes: Extracellular loop mutant of the screening library; also called Cx34.7 L238Y; not shown: C-terminal fluorescent protein fusion (mEmerald or RFP670 in FETCH)
B8: Cx34.7E214K/E223K (designer connexin Cx34.7M1, Morone americana Cx34.7 with E214K and E223K) (other)
chain: B1 chain with K225E
notes: Rationally designed hemichannel; In C. elegans expressed as GFP or mCherry fusion; in mice from AAV9 as mEmerald or mApple fusion; not shown: C-terminal fluorescent protein fusion (mEmerald or RFP670 in FETCH)
B9: Wild-type Connexin35 (Cx35) of Morone americana (other)
chain: MGEWTILERLLEAAVQQHSTMIGRILLTVVVIFRILIVAIVGETVYDDEQTMFVCNTLQPGCNQACYDKAFPISHIRYWVFQIIMVCTPSLCFITYSVHQSAKQKERRYSTVYLTLDKDQDSLKRDESKKIKNTIVNGVLQNTENSTKEAEPDCLEVKEIPNSAMRTTKSKMRRQEGISRFYIIQVVFRNALEIGFLVGQYFLYGFNVPSVYECDRYPCIKDVECYVSRPTEKTVFLVFMFAVSGFCVVLNLAELNHLGWRKIKTAVRGVQARRKSIYEIRNKDLPRMSVPNFGRTQSSDSAYV
notes: Connexin hemichannel (hexamer) expressed in HEK 293FT cells; In C. elegans it was expressed as GFP or mCherry fusion; also called Cx35WT; not shown: C-terminal fluorescent protein fusion (mEmerald or RFP670 in FETCH)
B10: Cx35 mutant Y78S (Morone americana) (other)
chain: B9 chain with Y78S
notes: Extracellular loop mutant of the screening library; also called Cx35 Y78S; not shown: C-terminal fluorescent protein fusion (mEmerald or RFP670 in FETCH)
B11: Cx35 mutant L237Y (Morone americana) (other)
chain: B9 chain with L237Y
notes: Extracellular loop mutant of the screening library; also called Cx35 L237Y; not shown: C-terminal fluorescent protein fusion (mEmerald or RFP670 in FETCH)
B12: Cx35 mutant Y78T (Morone americana) (other)
chain: B9 chain with Y78T
notes: Extracellular loop mutant of the screening library; also called Cx35 Y78T; not shown: C-terminal fluorescent protein fusion (mEmerald or RFP670 in FETCH)
B13: Cx35 mutant N56E (Morone americana) (other)
chain: B9 chain with N56E
notes: Extracellular loop mutant of the screening library; also called Cx35 N56E; not shown: C-terminal fluorescent protein fusion (mEmerald or RFP670 in FETCH)
B14: Cx35 mutant Y78V (Morone americana) (other)
chain: B9 chain with Y78V
notes: Extracellular loop mutant of the screening library; also called Cx35 Y78V; not shown: C-terminal fluorescent protein fusion (mEmerald or RFP670 in FETCH)
B15: Cx35E224H (Morone americana Cx35 mutant E224H) (other)
chain: B9 chain with E224H
notes: Extracellular loop mutant of the screening library; not shown: C-terminal fluorescent protein fusion (mEmerald or RFP670 in FETCH)
B16: Cx35K221E (designer connexin Cx35M1, Morone americana Cx35 with K221E) (other)
chain: B9 chain with K221E
notes: Rationally designed hemichannel; In C. elegans expressed as GFP or mCherry fusion; in mice from AAV9 as mApple or mEmerald fusion; not shown: C-terminal fluorescent protein fusion (mEmerald or RFP670 in FETCH)
B17: Cx35E224R (Morone americana Cx35 mutant E224R) (other)
chain: B9 chain with E224R
notes: as for B15
B18: Cx35E224K (Morone americana Cx35 mutant E224K) (other)
chain: B9 chain with E224K
notes: as for B15

Experiments:
[1] = biological target: Cx34.7E214K/E223K/E225K (Morone americana Cx34.7 triple mutant) (Morone americana); assay: FETCH (flow cytometry, % dual-labelled HEK 293FT cells), homotypic
homotypic FETCH screen = biological target: the molecule itself; assay: homotypic FETCH screen
Procedure: (§1) Complete FETCH methodology is outlined in Ransey et. al. 2021 (Ransey E, et al. (2021) BioRxiv). Briefly, replica multi-well plates with HEK 293FT cells were transfected with either of the two connexin proteins being evaluated for docking. Following a transfection incubation period, experimental counterparts were combined, replated, and further incubated for about 20 hr to about 24 hrs, allowing cells to make contacts and potentially generate connexosomes. Co-plated samples were trypsinized, fixed in suspension and analyzed via flow cytometry. Flow cytometry data was processed with two selection gates prior to their fluorescence evaluation. First, putative HEK cells were identified by evaluating sample forward vs. side scatter area. Next, single cells were identified as the putative cells that maintained a linear correlation of forward scatter height to forward scatter area. Finally, the dual fluorescence (mEmerald vs. RFP670) profiles of each sample was generated, and the FETCH score was defined as the proportion of dual-labeled fluorescent cells that develop in a co-plated sample.
For screening analysis, five FETCH replicates were obtained for each condition (mutation). These scores were benchmarked against scores for Cx36 and Cx45 (FETCH=1.2±0.1%, n=54 replicates). To quantitatively determine whether a connexin pair docked, FETCH scores were determined for the dual fluorescence of cells under conditions where docking was not anticipated. These conditions included pairs of connexins previously established to not show docking: (i) Cx36 and Cx45 (FETCH=0.7±0.0%, n=59 replicates), (ii) homotypic Cx23 (FETCH=0.9±0.4%, n=6 previously collected replicates (Ransey E, et al. (2021) BioRxiv), and (iii) Cx36 and Cx43 (FETCH=1.2±0.2%, n=10 previously collected replicates (Ransey E, et al. (2021) BioRxiv), and under conditions for which cells were transfected with cytoplasmic fluorophores rather than tagged connexins (FETCH=4.4±0.6%, n=17 previously collected replicates (Ransey E, et al. (2021) BioRxiv).

homotypic FETCH = biological target: the molecule itself; assay: homotypic FETCH
Procedure: as §1

human connexin36 (Cx36) [2] = biological target: T1, human connexin36 (Cx36); assay: heterotypic FETCH
Procedure: as §1

human connexin43 (Cx43) [3] = biological target: T2, human connexin43 (Cx43) (human, UniProt P17302 2-382); assay: heterotypic FETCH
T2 construct: whole, on cells; Hemichannel expressed in HEK 293FT cells for FETCH; also called GJA1; not shown: C-terminal fluorescent protein fusion (mEmerald or RFP670 in FETCH)
T2 sequence (P17302 2-382): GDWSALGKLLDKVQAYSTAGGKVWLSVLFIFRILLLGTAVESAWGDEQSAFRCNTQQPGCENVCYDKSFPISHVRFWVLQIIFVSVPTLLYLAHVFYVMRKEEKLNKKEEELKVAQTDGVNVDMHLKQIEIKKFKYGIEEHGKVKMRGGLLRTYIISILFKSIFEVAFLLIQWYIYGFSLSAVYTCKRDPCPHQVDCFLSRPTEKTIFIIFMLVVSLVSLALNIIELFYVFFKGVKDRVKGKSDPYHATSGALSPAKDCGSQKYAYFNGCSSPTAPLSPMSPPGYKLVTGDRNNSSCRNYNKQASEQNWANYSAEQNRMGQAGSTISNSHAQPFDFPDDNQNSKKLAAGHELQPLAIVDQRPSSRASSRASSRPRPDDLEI
Procedure: as §1

[4] = biological target: the molecule itself; assay: FETCH (flow cytometry, % dual-labelled HEK 293FT cells), homotypic
Procedure: as §1

[5] = biological target: B16; assay: FETCH (flow cytometry, % dual-labelled HEK 293FT cells), heterotypic
Procedure: as §1

human connexin36 (Cx36) [6] = biological target: T1, human connexin36 (Cx36); assay: as above
Procedure: as §1

human connexin43 (Cx43) [7] = biological target: T2, human connexin43 (Cx43); assay: as above
Procedure: as §1

human connexin43 (Cx43) [8] = biological target: T2, human connexin43 (Cx43); assay: FETCH (flow cytometry, % dual-labelled HEK 293FT cells), heterotypic, n=6
Procedure: as §1

[9] = biological target: Cx34.7E214K/E223K/E225K (Morone americana Cx34.7 triple mutant) (Morone americana); assay: FETCH (flow cytometry, % dual-labelled HEK 293FT cells), heterotypic

Binder: B1
FETCH score [1]: 0.2%

Binder: B2
binding result (homotypic FETCH screen): no binding

Binder: B3
binding result (homotypic FETCH screen): no binding

Binder: B4
binding result (homotypic FETCH screen): no binding

Binder: B5
binding result (homotypic FETCH screen): no binding

Binder: B6
binding result (homotypic FETCH screen): no binding

Binder: B7
binding result (homotypic FETCH screen): no binding

Binder: B8
binding result (homotypic FETCH): no binding | binding result (human connexin36 (Cx36) [2]): no binding | binding result (human connexin43 (Cx43) [3]): no binding | FETCH score [4]: 1.1% | FETCH score [5]: 35.7% | FETCH score (human connexin36 (Cx36) [6]): 1% | FETCH score (human connexin43 (Cx43) [7]): 0.9%

Binder: B9
FETCH score (human connexin36 (Cx36) [6]): 18%

Binder: B10
binding result (homotypic FETCH screen): no binding

Binder: B11
binding result (homotypic FETCH screen): no binding

Binder: B12
binding result (homotypic FETCH screen): no binding

Binder: B13
binding result (homotypic FETCH screen): no binding

Binder: B14
binding result (homotypic FETCH screen): no binding

Binder: B15
binding result (human connexin43 (Cx43) [3]): no binding | binding result (homotypic FETCH screen): no binding | FETCH score (human connexin36 (Cx36) [6]): 5.9% | FETCH score (human connexin43 (Cx43) [8]): 0.4%

Binder: B16
binding result (homotypic FETCH): no binding | binding result (human connexin36 (Cx36) [2]): no binding | binding result (human connexin43 (Cx43) [3]): no binding | FETCH score [9]: 1.2% | FETCH score [4]: 1.2% | FETCH score (human connexin36 (Cx36) [6]): 1.5% | FETCH score (human connexin43 (Cx43) [7]): 1.7%

Binder: B17
binding result (human connexin36 (Cx36) [2]): no binding | binding result (human connexin43 (Cx43) [3]): no binding | binding result (homotypic FETCH screen): no binding | FETCH score (human connexin36 (Cx36) [6]): 0.6% | FETCH score (human connexin43 (Cx43) [8]): 0.5%

Binder: B18
binding result (human connexin36 (Cx36) [2]): no binding | binding result (human connexin43 (Cx43) [3]): no binding | binding result (homotypic FETCH screen): no binding | FETCH score (human connexin36 (Cx36) [6]): 0.8% | FETCH score (human connexin43 (Cx43) [8]): 0.5%
